Molecular target: biotinylated H5 (A/Vietnam/1203/2004) HA polypeptide (influenza virus A/Vietnam/1203/2004, UniProt Q8QPL1 17-531)

B1: exemplary antibody (VH-1 combined with VL-1; Table 4) (antibody, V domains shown)
VH: EVQLLESGGGLVKPGQSLKLSCAASGFTFTSYGMHWVRQPPGKGLEWVAVISYDGSYKYYADSVQGRFTISRDNSKNTLYLQMNSLRAEDTAVYYCAKDSELRSLLYFEWLSQGYFNPWGAGTTLTVSS
VL: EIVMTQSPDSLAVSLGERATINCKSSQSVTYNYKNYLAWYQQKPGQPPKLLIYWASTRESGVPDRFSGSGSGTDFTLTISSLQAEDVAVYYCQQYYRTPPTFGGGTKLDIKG
notes: also called exemplary influenza antibody
With B1 the Kd was 0.03 nM, the koff was 7.38e-06 s⁻¹ and the kon was 247000 M⁻¹ s⁻¹.

Source: patent US20130302348A1 (MIT, published 2013)
